Results on seven molecules are retold here after PMC5696618 (Journal of biomolecular screening, 2016).

B1: mouse EAG1 PAS protein (residues 1-137) (domain or fragment, UniProt Q60603 1-137, looked up)
chain: MTMAGGRRGLVAPQNTFLENIVRRSNDTNFVLGNAQIVDWPIVYSNDGFCKLSGYHRAEVMQKSSACSFMYGELTDKDTVEKVRQTFENYEMNSFEILMYKKNRTPVWFFVKIAPIRNEQDKVVLFLCTFSDITAFK
B2: fluorescein-labeled mEAG1 PAS (F-PAS) (domain or fragment, mouse, UniProt Q60603 1-137, looked up)
chain: B1 chain
modifications: fluorescein (fluorescein 5-maleimide) on accessible cysteine residues; fluorescein to protein molar ratio typically 3 or 4
B3: mouse CNBh domain (residues 552-724) (domain or fragment, UniProt Q60603 552-724, looked up)
chain: TEKVLQICPKDMRADICVHLNRKVFKEHPAFRLASDGCLRALAMEFQTVHCAPGDLIYHAGESVDSLCFVVSGSLEVIQDDEVVAILGKGDVFGDVFWKEATLAQSCANVRALTYCDLHVIKRDALQKVLEFYTAFSHSFSRNLILTYNLRKRIVFRKISDVKREEEERMKRK

Read-outs that look alike come from different tables or passages of the source.

Data set [1] deals with hERG PAS domain (Homo sapiens, UniProt Q12809). Nature of the data set: Thermal shift assay. Type of data set: binding. The conditions noted are these: for Shift in Tm of hERG PAS protein: dose response, compound solubility issues limited this study.
hERG PAS domain, sequence (Q12809 1-135): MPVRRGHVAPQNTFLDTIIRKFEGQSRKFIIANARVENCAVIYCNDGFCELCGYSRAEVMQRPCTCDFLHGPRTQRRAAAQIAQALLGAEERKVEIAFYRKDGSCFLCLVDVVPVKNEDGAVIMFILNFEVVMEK
For data set [2], the target named is B3. The experiment in a line: ITC.
Data set [3] has as its target B3. Nature of the data set: ITC. The source holds these as a separate data set. In general terms: ITC needs no label: the signal is the heat of the interaction.
Data set [4] concerns the target B3. The experiment in a line: ITC. This is another data set of the same source.
Data set [5] deals with B3. The experiment in a line: fluorescence polarisation. For orientation: Fluorescence polarisation rises when a labelled molecule tumbles more slowly, as on binding a larger partner.
Data set [6] addresses B3. Nature of the data set: fluorescence polarisation. This is another data set of the same source.
In data set [7] the target is B3. The experiment in a line: fluorescence polarisation. This is another data set of the same source.
Data set [8] has as its target B3. The experiment in a line: fluorescence polarisation. This is another data set of the same source.
Data set [9] deals with B3. Nature of the data set: fluorescence polarisation. The source holds these as a separate data set.
For data set [10], the target named is B1. Nature of the data set: ITC.
Data set [11] deals with B1. Nature of the data set: ITC. This is another data set of the same source.
Data set [12] concerns the target B1. The experiment in a line: ITC. This is another data set of the same source.

On to `Oc1ccc(C(c2ccc(O)cc2)(C(F)(F)F)C(F)(F)F)cc1` [Bisphenol AF], for which, in data set [1] (human, 200 µM, pH 7.5), the “Decrease in Tm of hERG PAS protein” value is “at least 4.5 °C”.

Regarding `CC(C)(c1ccc(O)cc1)c1ccc(O)cc1` [Bisphenol A], the “Shift in Tm of hERG PAS protein” value in data set [1] was “No shift”.

In the case of `Oc1ccc(Cc2ccc(O)cc2)cc1` [Bisphenol F], in data set [1], the “Shift in Tm of hERG PAS protein” value is “No shift”.

On to `CC(C)(C)c1cc(S)cc(C(C)(C)C)c1O` [ST057196], for which, in data set [1] (on addition of 50 µM of compound), the “Decrease in Tm of hERG PAS protein” value is “more than 18 °C”.

With B1, the Kd (commonly the equilibrium constant for the complex coming apart) in data set [2] stood at 2100 ± 800 nM; in [3], 3300 nM; in data set [4], 1100 nM.

Consider B2, for which the dissociation constant (Kd) turned out to be 2400 ± 670 nM in data set [5]; 3100 ± 1100 nM in data set [6]; 2300 ± 930 nM in data set [7]; 1800 ± 560 nM in data set [8]; 3600 ± 1200 nM in data set [9].

With B3, the entries for the “stoichiometry N” value in [10], in [11] and in data set [12] were 1.3 ± 0.27, 0.77 and 1.2, respectively.
